Assay results taken from paper PMC10705946, “^225Ac-iPSMA-RGD for Alpha-Therapy Dual Targeting of Stromal/Tumor Cell PSMA and Integrins” (International Journal of Molecular Sciences, 2023).

What was measured:
[1] = Absorbed radiation dose estimation (N and dose, OLINDA 2.0); type: in vivo, athymic mice
Text: The %ID/organ data were used to calculate the biokinetic models. […] The ^225Ac decay chain was considered for dosimetry. […] DF (dose factor, mGy/MBq) values were obtained from OLINDA 2.0 code (Dose, Gy = NxDF).

HCT116 cells [2] = test: Reactive oxygen species, Muse Oxidative Stress kit; type: cell-based, human; details: for M1 (ROS plot gate) / M2 (ROS plot gate): representative plot
Description: Reactive oxygen species (ROS) were detected with the Muse™ Oxidative Stress kit, (Merck Millipore, Burlington, MA, USA) by measuring the produced intracellular superoxide radicals through dihydroethidium fluorescence. H2O2 (40 nM) was used as the positive control. Briefly, cells were seeded in cell culture flasks at a density of 1 × 10^6 cells and exposed to 4.5 Bq (2 Gy) and 9 Bq (4 Gy) of ^225Ac-iPSMA-RGD. Untreated cells were used as the control group. First, cells were trypsinized and suspended in 10 μL of 1X Assay Buffer. Then 190 μL of the oxidative stress reagent working solution was added to each cell suspension. The suspension was then gently vortexed and incubated at 37 °C with 5% CO2 for 30 min. Fluorescent intensities were examined by flow cytometry using a Muse Cell Analyzer (Merck Millipore, Burlington, MA, USA) and were performed in triplicate. Statistical analysis was performed with two-way ANOVA followed by Tukey’s multiple comparisons test using GraphPad Prism 5.0 Software. Data are shown as mean ± SEM. A p < 0.05 was considered statistically significant.

HCT116 cells [3] = test: Apoptosis, Muse Caspase-3/7 kit with 7-AAD, flow cytometry; type: cell-based, human
Description: Apoptosis in the colorectal HCT116 cancer cell line was evaluated in triplicate, using the Muse^TM Caspase-3/7 kit, Cat No. MCH100108 (Merck Millipore, Burlington, MA, USA). Briefly, cells were seeded in cell culture flasks at a density of 1 × 10^6 cells and exposed to 4.5 Bq of (2 Gy) and 9.0 Bq […] (4 Gy) of ^225Ac-iPSMA-RGD. Untreated cells were used as the control group and the positive control was prepared through nutrient starvation for 24 h. First, cells were trypsinized and suspended in 50 µL of 1X Assay Buffer BA (1 × 10^6 cells/mL). Then, 5 µL of Caspase-3/7 reagent working solution was added at 37 °C with 5% of CO2 for 30 min. After incubation, 150 µL of Caspase 7-AAD working solution was added to each tube. Finally, tubes were incubated for 5 min, protected from light, and fluorescent intensities were examined by flow cytometry using a Muse Cell Analyzer (Merck Millipore, Burlington, MA, USA) and were conducted in triplicate).

in vivo = test: in vivo
Description: All animal procedures followed the Ethical Regulations for the Handling of Laboratory Animals (NOM-062-ZOO-1999) and the requirements of the Institutional Animal Care and Use Committee, according to an approved protocol (CICUAL-08-2018-2021). […] Mice were injected with 3.7 kBq (50 µL) of ^225Ac-iPSMA-RGD and necropsied at 1, 3, 24, 72, and 96 h (n = 3). The liver, heart, kidney, pancreas, lung, spleen, small intestine, and stomach were measured using the Francium-221 photopeak (218 keV) in a hyperpure germanium gamma spectrometer (Ortec, Atlanta, GA, USA). Results were recorded as a percentage of injected dose (%ID) per organ. Blood and bone samples were also dissected, and the associated activity was recorded as %ID/g. A second group of mice was inoculated subcutaneously with 1 × 10^6 HCT116 cells. […] Animals were necropsied on day 11 post-treatment, as described above. Radioisotopic/X-ray ex vivo images of the source organs and tumor were obtained in a preclinical imaging system (Bruker, XTREME, Billerica, MA, USA).

HCT116 cells [4] = test: Proliferation capability (clonogenic) assay; type: cell-based, human; details: 2 Gy and 4 Gy tested
Description: HCT116 cell line was used to evaluate the ability of a single cell to form colonies after exposure to ^225Ac-iPSMA-RGD treatment, in triplicate. We seeded 500 cells in each well (six-well plate) and treated them with 4.5 Bq/well (2 Gy), […] (4 Gy), and control (no treatment) for 1 h, dissolved in 2 mL of RPMI medium. After exposure, the treatments and medium were removed and replaced with fresh medium. The plates were incubated for 15 days. Surviving colonies were fixed for 10 min with 4% paraformaldehyde at room temperature and washed with type 1 water. Afterward, they were stained with 0.1% crystal violet for 30 min, washed with purified water, and dried. For quantification, 10% acetic acid was added for 5 min to extract the crystal violet and the absorbance was measured at 590 nm in a microplate absorbance reader (EpochTM; BioTek Instruments, Winooski, VT, USA). Statistical analysis was performed with two-way ANOVA followed by Tukey’s multiple comparisons test using GraphPad Prism 5.0 Software. Data are shown as mean ± SEM. A p < 0.05 was considered statistically significant.

HCT116 tumors = test: Tumor size progression after treatment; type: in vivo, mice; details: 37 kBq
Description: A second group of mice was inoculated subcutaneously with 1 × 10^6 HCT116 cells. After the mice developed a tumor (0.220 ± 0.030 g), they were treated with 3.7 kBq (50 µL) of ^225Ac-iPSMA-RGD (n = 3) via tail vein injection. Animals were necropsied on day 11 post-treatment, as described above.

[5] = mice, day 11 after treatment
in vitro = details: human, diluted human serum (1:5, v/v)
Description: After adding 200 μL of ^225Ac-iPSMA-RGD to the diluted human serum (1:5, v/v) in a vial (n = 3), the mixture was kept at 37 °C in a dry bath. At 0.5 h, 1 h, and 3 h intervals, 200 μL of each vial was removed and 1 mL of methanol: acetonitrile (1:1, v/v) was added to precipitate the proteins. The total activity was measured in a NaI(Tl) well-type detector by 218 keV gamma emission of Fr-221 and the solution was centrifuged at 3000 rpm for 5 min. The supernatant was then decanted and the pellet measured to determine ^225Ac binding proteins.

N=C(N)NCCC[C@@H]1NC(=O)[C@H](CCCCNC(=O)CCCN2C(=O)CC(SC[C@H](NC(=O)c3ccc(NNC(=S)Nc4ccc(CC5CN(CC(=O)O)CCN(CC(=O)O)CCN(CC(=O)O)CCN(CC(=O)O)CCN(CC(=O)O)CCN5CC(=O)O)cc4)nc3)C(=O)N[C@@H](Cc3ccc4ccccc4c3)C(=O)NCCCC[C@H](NC(=O)N[C@@H](CCC(=O)O)C(=O)O)C(=O)O)C2=O)NC(=O)[C@@H](Cc2ccccc2)NC(=O)[C@H](CC(=O)O)NC(=O)CNC1=O (stereo partly shown) [^225Ac-iPSMA-RGD, ^225Ac-HEHA-HYNIC-iPSMA-RGD, metal not drawn]
Radiation Absorbed Dose, Kidney ([1]; athymic mice): 17.63 Gy/37 kBq
Radiation Absorbed Dose, Liver ([1]; athymic mice): 15.85 Gy/37 kBq
Radiation Absorbed Dose, Tumor ([1]; athymic mice, HCT116 tumor): 237.07 Gy/37 kBq
Total nuclear transformations N=∫t=0t=11dAtdt, Tumor ([1]; athymic mice, HCT116 tumor, t = 0 to 11 days): 7.83 MBq·h
Total nuclear transformations N=∫t=0t=11dAtdt, Kidney ([1]; athymic mice, t = 0 to 11 days): 3.52 MBq·h
Total nuclear transformations N=∫t=0t=11dAtdt, Liver ([1]; athymic mice, t = 0 to 11 days): 5.23 MBq·h
Tumor-to-kidney radiation dose ratio ([1]; mice, from Table 1): thirteen
Tumor-to-liver radiation dose ratio ([1]; mice, from Table 1): fifteen
Increase of HCT116 cells with oxidative stress (HCT116 cells [2]; 4 Gy): approximately 30%
M1 (ROS plot gate) (HCT116 cells [2]; HCT116, 2 Gy): 90.14%
M2 (ROS plot gate) (HCT116 cells [2]; HCT116, 2 Gy): 9.82%
M1 (ROS plot gate) (HCT116 cells [2]; HCT116, 4 Gy): 59.30%
M2 (ROS plot gate) (HCT116 cells [2]; HCT116, 4 Gy): 40.52%
Increase in apoptotic/dead cells (HCT116 cells [3]; HCT116, 2 Gy): approximately 24.6%
Increase in apoptotic/dead cells (HCT116 cells [3]; HCT116, 4 Gy): ~31.2%
Biodistribution pattern (in vivo; healthy mice): rapid blood clearance with hepatobiliary and renal elimination and no accumulation in other tissue
tissue uptake (in vivo; male, Nu/Nu, mouse, bone, 3.7 kBq, total radioactivity): 0.5 ± 0.3 %ID/g
Reduction of proliferation capability (HCT116 cells [4]): 65%
Tumor size progression compared to control group (untreated mice) (HCT116 tumors; HCT116 tumor-bearing mice): significantly lower (p < 0.05)
Tumor size compared to ^225Ac-RGD and ^225Ac-PSMA groups (HCT116 tumors; eleven days after administration): significantly lower (p < 0.05)
Renal or hepatic function damage [5]: no damage to renal or hepatic function was detected
Serum alanine aminotransferase [5]: 70 ± 8 IU/L
Serum aspartate aminotransferase [5]: 141 ± 19 IU/L
Serum creatinine [5]: 0.215 ± 0.071 mg/dL
fraction unbound at 3 h (in vitro): 0.923
